These results are taken from publication PMC4066767, “Distinct nucleic acid interaction properties of HIV-1 nucleocapsid protein precursor NCp15 explain reduced viral infectivity”.

For one series, the target named is NCp15 (p9 + p6) (HIV-1) (UniProt P12493). As to the kind of experiment: fluorescence anisotropy. A general note: Fluorescence polarisation rises when a labelled molecule tumbles more slowly, as on binding a larger partner.
For series [1], the target named is NCp7 (mature nucleocapsid) (HIV-1) (UniProt P12493). As to the kind of experiment: fluorescence anisotropy.
In a further series the target is NCp9 (p7 + SP2) (HIV-1) (UniProt P12493). As to the kind of experiment: fluorescence anisotropy.
Series [2] addresses NCp7 (mature nucleocapsid) (HIV-1, UniProt P12493 378-432). Nature of the series: fluorescence anisotropy salt titration; Kd extrapolated to 1 M NaCl; Zeff 3.0 ± 0.3. The note with it: protein: recombinant; tags: none (Trx tag removed by TEV); label: 5' FAM; single strand.
The next series deals with NCp15 (p9 + p6) (HIV-1, UniProt P12493 378-500). As to the kind of experiment: fluorescence anisotropy salt titration; Kd extrapolated to 1 M NaCl; Zeff 3.8 ± 0.7. The note with it: protein: recombinant; tags: none (Trx tag removed by TEV); label: 5' FAM; single strand.
A further series addresses NCp9 (p7 + SP2) (HIV-1, UniProt P12493 378-448). As to the kind of experiment: fluorescence anisotropy salt titration; Kd extrapolated to 1 M NaCl; Zeff 4.3 ± 0.7. The note with it: protein: recombinant; tags: none (Trx tag removed by TEV); label: 5' FAM; single strand.

The term Kd denotes a measure of binding affinity in units of concentration. As for shortPBS RNA (105 nt), the Kd with NCp15 (p9 + p6) (HIV-1) was found to be 0.278 µM; in series [1] it was 0.231 µM; with NCp9 (p7 + SP2) (HIV-1), 0.24 µM.

B1: 40-nt ssDNA (ssDNA)
DNA: ACTGGACCAAATTCTAATGTGTGTGTACGAAGCATAGCGG
As for B1, the Kd in series [2] was 23 µM; with NCp15 (p9 + p6) it was 78 µM; with NCp9 (p7 + SP2), 92 µM.
